From US20240409663A1 (CONCEPT TO MEDICINE BIOTECH, published 2024) come the findings set out here.

In assay [1] the target is T1, human GPC3-his tag protein (human, UniProt P51654 25-559, limits assumed).
T1 construct: recombinant soluble antigen used as analyte in all Biacore runs; also called recombinant GPC3 protein; rhGPC3-His; not shown: His tag
Description: SPR Biacore 8K, mAb captured on CM5, single dose GPC3-his. How it is done:
The binding of mouse monoclonal antibodies to human GPC3-his was tested with Biacore using a capture method. The antibodies were captured using CM5 sensor chip. A single dose of human GPC3-his tag protein was injected over captured antibody for 2 mins at a flow rate of 30 μl/min. The antigen was allowed to dissociate for 360 s. All the experiments were carried out on a Biacore 8K. Data analysis was carried out using Biacore 8K evaluation software.
For orientation: Surface plasmon resonance follows binding to a sensor surface in real time, without labels.

Assay [2] addresses T1, human GPC3-his tag protein. Description: SPR Biacore 8K, mAb captured, one or two doses GPC3-his. As to the method: The binding of the optimized antibodies of 52H5D3B8 mAb to human GPC3-his was tested with Biacore using a capture method. A single dose or two doses of human GPC3-his tag protein was injected over captured antibody. All the experiments were carried out on a Biacore 8K. Data analysis was carried out using Biacore 8K evaluation software.

Another assay has as its target T2, human GPC3 on cells (human, UniProt P51654 25-554).
T2 construct: whole, on cells; over-expressed on CHOK1 cells or endogenous on HEPG2, Hep3B and Huh-7 hepatocellular carcinoma cells; the cell line is named under assay; also called GPC3-CHOK1 cells; human GPC3 over-expressed CHOK1 cells
Description: FACS, GPC3-CHOK1 cells. As to the method: Briefly, GPC3-CHOK1 cells were firstly incubated with Fc blocking reagent at 4° C. for 15 mins. Cells were washed by FACS buffer and divided to each well with 3-fold serially diluted 52H5D3B8, 52H5D3B8-1 #, 52H5D3B8-2 #, 52H5D3B8-3 #, 52H5D3B8-4 #, 52H5D3B8-5 #, 52H5D3B8-6 #, 52H5D3B8-7 #, 52H5D3B8-8 #, 52H5D3B8-9 #, 52H5D3B8-10 #, 52H5D3B8-11 #, 52H5D3B8-12 #, 52H5D3B8-13 #, 52H5D3B8-14 # and 52H5D3B8-15# chimeric mAbs starting at 30 μg/mL at 4° C. for 60 mins. Cells were washed by FACS buffer and fixed with 2% PFA at RT for 15 mins. […] Samples were washed twice with FACS buffer.

B1: 18C1D9 mouse monoclonal antibody (antibody, V domains shown)
VH: QVQLQQSGAELVRPGASVTLSCKASGYTFSDYEMHWVKQTPVHGLEWIGAIDPETGGTAYNQKFKGKATLTADKSSSTAYMELRSLTSEDSAVYYCTRYYSYAYWGQGTLVTVSA
VL: DVVMTQSPLSLPVSLGDQASISCRSRQSLVHSNGNTYLQWYLQKPGQSPKLLIYKVSNRFSGVPDRFSGSGSGTDFTLKISRVEAEDLGVYFCFQSIHVPYTFGGGTKLEKK
notes: mouse hybridoma antibody
Usually Kd stands for the concentration at which binding is half-saturated. Low readings indicate tighter binding, high ones weaker binding. In general, koff refers to the rate constant with which the complex falls apart. As a reminder, the kon is the second-order rate constant of association. Lower therefore signals slow association. Regarding B1, in assay [1], binding was put at a Kd of 1.57 nM, the koff stood at 0.000412 s⁻¹ and the on-rate constant (kon) is 262000 M⁻¹ s⁻¹.

B2: 171F9C5 mouse monoclonal antibody (antibody, V domains shown)
VH: QVQLQQSGAELVRPGASVTLSCKASGYTFTDYEIHWVKQTPVHGLEWIGAIDPETDNTAYSQKFKGKAILTADKSSSTAYMELRSLTSEDSAVYYCTRYYSYAYWGQGTLVTVSA
VL: DVVMTQTPLSLPVSLGDQASISCRSSQSPVHRNGNTYLHWYLQKPGQSPKLLIFKVSNRFSGVPDRFSGSGSGTDFTLKISRVAAEDLGVYFCSQTTHVPYTFGGGTKLEIK
notes: mouse hybridoma antibody
In assay [1], B2 returned a Kd of 1.22 nM, an off-rate (koff) of 0.000199 s⁻¹ and an on-rate constant (kon) of 162000 M⁻¹ s⁻¹.

B3: 52H5D3B8 mouse monoclonal antibody (antibody, V domains shown)
VH: QVQLQQSGAELVRPGASVKLSCKALGYTFTDYEMHWVKQTPVHGLEWIGAIHPGSGGTAYNQKFKGKATLTADKFSSTGYMELSSLTSEDSAVYYCTRFYSYAYWGQGTLVTVSA
VL: DVVMTQTPLSLPVSLGDQASISCRSSQSLVHSNGNTYLQWYLQKPGQSPKLLIYKVSNRFSGVPDRFSGSGSGTDFILKISRVEAEDLGVYFCSQSIHVPYTFGGGTKLEIK
notes: mouse hybridoma antibody
As to B3, in assay [1], the Kd was 1.39 nM, the koff was found to be 0.000317 s⁻¹ and the on-rate (kon) amounted to 228000 M⁻¹ s⁻¹.

B4: 52H5D3B8-8# chimeric mAb (antibody, V domains shown)
VH: QVQLQQSGAELVRPGASVKLSCKALGYTFTDYEMHWVKQTPVHGLEWIGAIHPGSGGTAYNQKFKGKATLTADKFSSTGYMELSSLTSEDSAVYYCTRFYSFAYWGQGTLVTVSA
VL: DVVMTQTPLSLPVSLGDQASISCRSSQSLVHSNGNTYLQWYLQKPGQSPKLLIYKVSNRFSGVPDRFSGSGSGTDFILKISRVEAEDLGVYFCFQSIHVPYTFGGGTKLEIK
notes: CDR3 mutant of the 52H5D3B8 chimeric mAb (human IgG1)
One may read the EC50 as the concentration that produces a half-maximal response. High values mean a less potent agent, low ones a more potent agent. In assay [2], B4 registered a Kd of 2.03 nM, a koff of 0.001 s⁻¹ and an association rate constant (kon) of 494000 M⁻¹ s⁻¹. Further, in the assay with human GPC3 on cells, the response was half-maximal at 0.0919 µg/mL (EC50).

B5: 52H5D3B8-1# chimeric mAb (antibody, V domains shown)
VH: QVQLQQSGAELVRPGASVKLSCKALGYTFTDYEMHWVKQTPVHGLEWIGAIHPGSGGTAYNQKFKGKATLTADKFSSTGYMELSSLTSEDSAVYYCTRYYSYAYWGQGTLVTVSA
VL: DVVMTQTPLSLPVSLGDQASISCRSSQSLVHSNGNTYLQWYLQKPGQSPKLLIYKVSNRFSGVPDRFSGSGSGTDFILKISRVEAEDLGVYFCSQSIHVPYTFGGGTKLEIK
notes: as for B4
In assay [2], B5 gave an equilibrium dissociation constant (Kd) of 0.74 nM, a koff of 0.000288 s⁻¹ and a kon of 390000 M⁻¹ s⁻¹. Besides, the 50% effective concentration (EC50) with human GPC3 on cells was 0.104 µg/mL.

B6: 52H5D3B8-5# chimeric mAb (antibody, V domains shown)
VH: QVQLQQSGAELVRPGASVKLSCKALGYTFTDYEMHWVKQTPVHGLEWIGAIHPGSGGTAYNQKFKGKATLTADKFSSTGYMELSSLTSEDSAVYYCTRYYSFAYWGQGTLVTVSA
VL: DVVMTQTPLSLPVSLGDQASISCRSSQSLVHSNGNTYLQWYLQKPGQSPKLLIYKVSNRFSGVPDRFSGSGSGTDFILKISRVEAEDLGVYFCSQSIHVPYTFGGGTKLEIK
notes: as for B4
For B6, in assay [2], the dissociation constant Kd stood at 4.12 nM, the off-rate constant (koff) turned out to be 0.000412 s⁻¹ and the association rate constant (kon) was found to be 100000 M⁻¹ s⁻¹. For the same molecule, the 50% effective concentration (EC50) with human GPC3 on cells came to 0.405 µg/mL.

B7: 52H5D3B8-9# chimeric mAb (antibody, V domains shown)
VH: QVQLQQSGAELVRPGASVKLSCKALGYTFTDYEMHWVKQTPVHGLEWIGAIHPGSGGTAYNQKFKGKATLTADKFSSTGYMELSSLTSEDSAVYYCTRFYSFAYWGQGTLVTVSA
VL: DVVMTQTPLSLPVSLGDQASISCRSSQSLVHSNGNTYLQWYLQKPGQSPKLLIYKVSNRFSGVPDRFSGSGSGTDFILKISRVEAEDLGVYFCSQSTHVPYTFGGGTKLEIK
notes: as for B4
In assay [2], B7 came in with an equilibrium dissociation constant (Kd) of 12.9 nM, a dissociation rate constant (koff) of 0.00216 s⁻¹ and an on-rate (kon) of 167000 M⁻¹ s⁻¹. Also, the EC50 with human GPC3 on cells was found to be 0.247 µg/mL.

B8: 52H5D3B8-2# chimeric mAb (antibody, V domains shown)
VH: QVQLQQSGAELVRPGASVKLSCKALGYTFTDYEMHWVKQTPVHGLEWIGAIHPGSGGTAYNQKFKGKATLTADKFSSTGYMELSSLTSEDSAVYYCTRFYSFAYWGQGTLVTVSA
VL: DVVMTQTPLSLPVSLGDQASISCRSSQSLVHSNGNTYLQWYLQKPGQSPKLLIYKVSNRFSGVPDRFSGSGSGTDFILKISRVEAEDLGVYFCSQSIHVPYTFGGGTKLEIK
notes: as for B4
In assay [2], B8 registered a dissociation constant (Kd) of 5.31 nM, a koff of 0.00121 s⁻¹ and a kon of 228000 M⁻¹ s⁻¹. This molecule also yielded an EC50 in the assay with human GPC3 on cells of 0.149 µg/mL.

B9: 52H5D3B8-7# chimeric mAb (antibody, V domains shown)
VH: QVQLQQSGAELVRPGASVKLSCKALGYTFTDYEMHWVKQTPVHGLEWIGAIHPGSGGTAYNQKFKGKATLTADKFSSTGYMELSSLTSEDSAVYYCTRYYSYAYWGQGTLVTVSA
VL: DVVMTQTPLSLPVSLGDQASISCRSSQSLVHSNGNTYLQWYLQKPGQSPKLLIYKVSNRFSGVPDRFSGSGSGTDFILKISRVEAEDLGVYFCSQSTHVPYTFGGGTKLEIK
notes: as for B4
In assay [2], B9 registered a Kd of 3.97 nM, a koff of 0.000617 s⁻¹ and a kon of 155000 M⁻¹ s⁻¹. In the assay with human GPC3 on cells, this molecule returned a half-maximal effective concentration (EC50) of 0.232 µg/mL.

B10: 52H5D3B8-4# chimeric mAb (antibody, V domains shown)
VH: QVQLQQSGAELVRPGASVKLSCKALGYTFTDYEMHWVKQTPVHGLEWIGAIHPGSGGTAYNQKFKGKATLTADKFSSTGYMELSSLTSEDSAVYYCTRFYSYAYWGQGTLVTVSA
VL: DVVMTQTPLSLPVSLGDQASISCRSSQSLVHSNGNTYLQWYLQKPGQSPKLLIYKVSNRFSGVPDRFSGSGSGTDFILKISRVEAEDLGVYFCSQSTHVPYTFGGGTKLEIK
notes: as for B4
Consider B10, for which, in assay [2], the dissociation constant Kd stood at 1.72 nM, the koff stood at 0.000578 s⁻¹ and the kon came to 335000 M⁻¹ s⁻¹. Further, a half-maximal response with human GPC3 on cells (EC50) required 0.0986 µg/mL.

B11: 163E7D12 mouse monoclonal antibody (antibody, V domains shown)
VH: QVQLQQSGAELVRPGASVTLSCKASGYTFTDYEMHWVKQTPVHGLEWIGAIGPETGSTAYNQRFKGKAIVTADKSSSTAYMELRSLTSEDSAVYYCTRYYSFAYWGQGTLVTVSA
VL: DVVMTQTPLSLPVSLGGQASISCRSSQSLVHSNGNTYLQWYLQKPGQSPKLLIFKVSNRFSGVPDRFSGSGSGTDFTLKISRVEAEDLGVYFCFQSIHVPYTFGGGTKLEIK
notes: mouse hybridoma antibody
Turning to B11, in assay [1], the Kd was 0.755 nM, the koff worked out at 0.000169 s⁻¹ and the on-rate constant (kon) stood at 223000 M⁻¹ s⁻¹.

B12: 52H5D3B8-10# chimeric mAb (antibody, V domains shown)
VH: QVQLQQSGAELVRPGASVKLSCKALGYTFTDYEMHWVKQTPVHGLEWIGAIHPGSGGTAYNQKFKGKATLTADKFSSTGYMELSSLTSEDSAVYYCTRFYSYAYWGQGTLVTVSA
VL: DVVMTQTPLSLPVSLGDQASISCRSSQSLVHSNGNTYLQWYLQKPGQSPKLLIYKVSNRFSGVPDRFSGSGSGTDFILKISRVEAEDLGVYFCFQSTHVPYTFGGGTKLEIK
notes: as for B4
In assay [2], B12 returned a Kd of 4.05 nM, a koff of 0.00118 s⁻¹ and a kon of 291000 M⁻¹ s⁻¹. Moreover, the EC50 with human GPC3 on cells is 0.176 µg/mL.

B13: 52H5D3B8-3# chimeric mAb (antibody, V domains shown)
VH: QVQLQQSGAELVRPGASVKLSCKALGYTFTDYEMHWVKQTPVHGLEWIGAIHPGSGGTAYNQKFKGKATLTADKFSSTGYMELSSLTSEDSAVYYCTRFYSYAYWGQGTLVTVSA
VL: DVVMTQTPLSLPVSLGDQASISCRSSQSLVHSNGNTYLQWYLQKPGQSPKLLIYKVSNRFSGVPDRFSGSGSGTDFILKISRVEAEDLGVYFCFQSIHVPYTFGGGTKLEIK
notes: as for B4
In assay [2], B13 had a Kd of 1.06 nM, a koff of 0.000556 s⁻¹ and a kon of 525000 M⁻¹ s⁻¹. In the assay with human GPC3 on cells, this molecule returned an EC50 of 0.0869 µg/mL.

B14: 172B4E9 mouse monoclonal antibody (antibody, V domains shown)
VH: QVQLQQSGAELVRPGASVTLSCKASGYTFTDYEIHWVKQTPVHGLEWIGAIDPATGDTAYTQKFKGKAILTADTSSNTVYMELRGLTSEDSAVHFCTRFYSYAYWGQGTLVTVSA
VL: DVVMTQTPLSLPVSLGDQASISCRSSQSLVHTNGHTYLQWYLQKSGQSPRLLIFKVSNRFSGVPDRFSGSGSGTDFKLKISRVEAEDLGVYFCSQSTHVPYTFGGGTKLEIK
notes: mouse hybridoma antibody
In assay [1], B14 gave a Kd of 0.446 nM, a dissociation rate constant (koff) of 9.01e-05 s⁻¹ and a kon of 202000 M⁻¹ s⁻¹.

B15: 152E9F7 mouse monoclonal antibody (antibody, V domains shown)
VH: QVQLQQSGAELVRPGASVTLSCKASGYTFTDYEIHWVKQTPVHGLEWIGAIDPETGDTAYTQKFKGKAILTADKSSNTVYMELRSLTSEDSAVYYCTRFYSYAYWGQGTLVTVSA
VL: DVVMTQTPLSLPVSLGDQASISCRSSQSLVHTNGHTYLQWYLQKSGQSPKLLIYKVSNRFSGVPDRFSGSGSGTDFTLKISRVEAEDLGVYFCSQSTHVPYTFGGGTKLEIK
notes: mouse hybridoma antibody
For B15, in assay [1], the Kd came to 0.881 nM, the off-rate constant (koff) was found to be 0.000162 s⁻¹ and the kon is 184000 M⁻¹ s⁻¹.
